Laboratory results as given in article PMC5287571 (Biochemical pharmacology, 2016).

Molecular target: HA-Ubiquitin-Vinyl Sulfone (UniProt P0CG48 1-76, vinyl sulfone (active site probe of cysteine DUBs))
Assay: active-site-directed labelling with HA-UbVS

binding result: binds
B1: UCHL5 (enzyme)
chain: MTGNAGEWCLMESDPGVFTELIKGFGCRGAQVEEIWSLEPENFEKLKPVHGLIFLFKWQPGEEPAGSVVQDSRLDTIFFAKQVINNACATQAIVSVLLNCTHQDVHLGETLSEFKEFSQSFDAAMKGLALSNSDVIRQVHNSFARQQMFEFDTKTSAKEEDAFHFVSYVPVNGRLYELDGLREGPIDLGACNQDDWISAVRPVIEKRIQKYSEGEIRFNLMAIVSDRKMIYEQKIAELQRQLAEEEPMDTDQGNSMLSAIQSEVAKNQMLIEEEVQKLKRYKIENIRRKHNYLPFIMELLKTLAEHQQLIPLVEKAKEKQNAKKAQETK
